One assay has as its target cynomolgus serum albumin (cynomolgus, UniProt A2V9Z4 25-608). The assay is described as follows: Octet HTX (ForteBio), HCAb on AHC sensor, 1:1 fit.
Assay [1] concerns the target T1, mouse serum albumin (mouse, UniProt P07724 25-608).
T1 construct: also called MSA
In words: Octet HTX (ForteBio), HCAb on AHC sensor, 1:1 fit. On the technique in general: BLI is a label-free optical method that tracks binding on a fibre tip over time.

A further assay concerns the target T2, human serum albumin (human, UniProt P02768 25-609).
T2 construct: also called HSA
In words: Octet HTX (ForteBio), HCAb on AHC sensor, 1:1 fit.

Assay [2] addresses T1, mouse serum albumin. The assay is described as follows: ratio of the Octet KD for mouse serum albumin to that for human serum albumin.
A further assay addresses protein A (UniProt P38507 37-327). The assay is described as follows: Octet HTX (ForteBio), HCAb on AHC sensor; legend: no binding was detected under the conditions of this assay.
Assay [3] has as its target human CD3 (human). In words: method not given.
The target of assay [4] is human CD3 (human). In words: SPR, BiaCore method of WO2018208864A1. On the technique in general: Surface plasmon resonance follows binding to a sensor surface in real time, without labels.
human CD3 (human), sequence (chain, as listed by the source): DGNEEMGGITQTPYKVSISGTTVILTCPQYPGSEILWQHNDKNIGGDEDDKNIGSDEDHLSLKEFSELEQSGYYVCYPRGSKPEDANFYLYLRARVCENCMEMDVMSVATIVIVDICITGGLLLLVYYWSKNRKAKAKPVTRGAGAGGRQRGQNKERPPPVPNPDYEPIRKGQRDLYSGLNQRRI
Assay [5] addresses human CD3 (human). In words: BLI, Octet method of WO2018208864A1.
For assay [6], the target named is T3, dimeric CD19 extracellular domain fused with human IgG1 Fc (human, UniProt P15391 20-291, limits assumed).
T3 construct: extracellular domain; also called dimeric CD19 protein; not shown: human IgG1 Fc
T3 sequence (looked up): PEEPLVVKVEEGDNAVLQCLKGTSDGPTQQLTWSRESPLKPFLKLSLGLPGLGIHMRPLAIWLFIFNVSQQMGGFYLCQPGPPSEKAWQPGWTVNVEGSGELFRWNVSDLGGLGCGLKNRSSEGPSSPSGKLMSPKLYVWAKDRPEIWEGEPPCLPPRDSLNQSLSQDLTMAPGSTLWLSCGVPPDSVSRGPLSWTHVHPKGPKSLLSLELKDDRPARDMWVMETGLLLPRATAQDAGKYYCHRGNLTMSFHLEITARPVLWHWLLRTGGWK
In words: ForteBio instrument (called SPR in the text), dimeric CD19 extracellular domain-human IgG1 Fc; dimeric CD19 extracellular domain fused with human IgG1 Fc. The procedure:
(§1) As noted above, some of the constructs produced contained an anti-CD19 scFv having the amino acid sequence set forth in SEQ ID NO: 9 or 18. The binding affinity of the two CD19 binding domains to CD19 were measured by SPR using a monomeric CD19 extracellular domain and a dimeric CD19 extracellular domain fused with human IgG1 Fc. Binding kinetic parameters were measured using a ForteBio instrument generally as previously described (see, Estep et al. (2013) MAbs, 5(2): 270-78).

Assay [7] deals with T4, monomeric CD19 extracellular domain (UniProt P15391 20-291, limits assumed).
T4 construct: extracellular domain; also called monomeric CD19 protein
T4 sequence (looked up): T3 sequence (looked up)
The assay is described as follows: ForteBio instrument (called SPR in the text), monomeric CD19 extracellular domain; monomeric CD19 protein. As to the method:
as §1

The target in assay [8] is T5, human CD19 (human, UniProt P15391 20-291, biotinylated in the Biacore assay of Table 11).
T5 construct: also called isolated CD19; Human CD19 Protein
T5 sequence (looked up): T3 sequence (looked up)
The assay is described as follows: SPR Biacore 8K, captured biotinylated CD19, scFv analyte. As to the method:
(§2) Additional kinetic analysis of the anti-CD19 VL-VH scFvs, with or without a disulfide bond introduced by Cys substitutions at position 44 of VH and position 100 of VL, was conducted by surface plasmon resonance (SPR). The scFv proteins were serially diluted and assessed at 25° C. in a HBS-EP+ running buffer system (10 mM HEPES pH 7.4, 150 mM NaCl, 3 mM EDTA, 0.05% Surfactant P20) using a Biacore 8K optical biosensor (Global Life Sciences Solutions USA, Marlborough, Mass.). The sample compartment was maintained at 10° C. for the duration of each experiment.
(§3) Each experiment cycle began with an injection (500 s at 2 μL/min) over flow cells 1 and 2 of a 1:20 solution of biotin CAPture reagent (Global Life Sciences Solutions USA) in running buffer. This was followed by an injection (300 s at 4.0 μL/min) of biotinylated CD-19 (40 nM) overflow cell 2. Upon capture of CD19 to the sensor surface, test scFvs (16.2 to 0.067 nM, 3-fold dilution in running buffer) was injected (300 s at 30 uL/min) over flow cells 1 and 2. The dissociation of the scFvs was monitored for a duration of 2564 s. Finally, an injection (90 s at 10 μL/min) of regeneration solution (6 M Guanidine-HCl in 0.25 M NaOH) overflow cells 1 and 2 was used to prepare the sensor surface for another cycle.

The target in assay [9] is T5, human CD19. In words: SPR Biacore 8K, captured biotinylated CD19, scFv with disulfide bond as analyte. As to the method:
as §2, §3

Consider 16 molecules from patent US20230037815A1 (CULLINAN THERAPEUTICS, published 2023).

Numbering of substitutions follows the chain as printed.

T1 sequence (P07724 25-608 limits assumed): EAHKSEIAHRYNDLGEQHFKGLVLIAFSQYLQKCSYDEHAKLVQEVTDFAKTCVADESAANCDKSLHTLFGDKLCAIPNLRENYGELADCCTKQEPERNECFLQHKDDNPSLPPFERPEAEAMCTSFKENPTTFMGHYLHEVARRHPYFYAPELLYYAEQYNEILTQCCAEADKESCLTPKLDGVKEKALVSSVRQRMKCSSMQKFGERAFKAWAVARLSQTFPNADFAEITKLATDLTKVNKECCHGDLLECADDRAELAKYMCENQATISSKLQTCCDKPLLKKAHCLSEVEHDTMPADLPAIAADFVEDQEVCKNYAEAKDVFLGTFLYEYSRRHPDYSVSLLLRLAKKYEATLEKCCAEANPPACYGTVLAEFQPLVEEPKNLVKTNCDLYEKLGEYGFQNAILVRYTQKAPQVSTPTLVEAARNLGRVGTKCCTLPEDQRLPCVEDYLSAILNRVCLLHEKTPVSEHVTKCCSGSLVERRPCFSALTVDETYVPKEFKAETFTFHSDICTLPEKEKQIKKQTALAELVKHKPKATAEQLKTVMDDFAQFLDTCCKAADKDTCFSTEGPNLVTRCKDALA
cynomolgus serum albumin, sequence (A2V9Z4 25-608 limits assumed): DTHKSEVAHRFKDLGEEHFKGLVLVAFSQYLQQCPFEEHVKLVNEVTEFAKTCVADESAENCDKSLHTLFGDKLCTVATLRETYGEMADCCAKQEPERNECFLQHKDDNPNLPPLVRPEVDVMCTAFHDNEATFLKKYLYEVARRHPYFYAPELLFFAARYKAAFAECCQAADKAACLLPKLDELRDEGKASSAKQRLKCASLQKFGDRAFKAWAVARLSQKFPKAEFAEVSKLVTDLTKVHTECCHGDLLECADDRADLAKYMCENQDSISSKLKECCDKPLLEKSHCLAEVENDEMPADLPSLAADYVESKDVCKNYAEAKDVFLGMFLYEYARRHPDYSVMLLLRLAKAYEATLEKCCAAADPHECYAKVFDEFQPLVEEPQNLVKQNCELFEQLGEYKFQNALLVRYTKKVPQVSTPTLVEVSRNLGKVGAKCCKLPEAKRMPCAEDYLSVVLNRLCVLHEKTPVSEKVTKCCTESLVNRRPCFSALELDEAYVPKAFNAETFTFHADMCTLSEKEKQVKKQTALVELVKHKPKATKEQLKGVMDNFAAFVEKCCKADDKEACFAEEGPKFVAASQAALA

B1: CNG-HSA-106 (VHH)
VHH: KVQLLESGGGLVQPGGSLRLSCAASGFTFSSFGMSWVRQAPGKGLEWVSSISGSGSDTLYADSVRGRFTISRDNSKNTLYLQMDSLRAEDTAVYYCTIGGSRSISSQGTLVTVSS
One may read the Kd as the constant that tells how readily two partners part at equilibrium. A low value points to higher affinity. Broadly, the koff is the rate constant with which the complex falls apart. As for B1, the Kd with cynomolgus serum albumin was determined as 14.4 nM; with mouse serum albumin [1], 57.8 nM; with human serum albumin it was 17 nM. Further, the koff with cynomolgus serum albumin was 0.00238 s⁻¹; in the assay with mouse serum albumin [1], 0.0124 s⁻¹; with human serum albumin, 0.00297 s⁻¹. Also, in the assay with mouse serum albumin [2], the “Ratio of MSA-KD to HSA-KD” value stood at 3.41. The binding result in the assay with protein A was “no binding”.

B2: CNG-CD3-1 scFv construct (scFv)
scFv: DIVMTQSPDSLAVSLGERATINCKSSQSLLNARTGKNYLAWYQQKPGQPPKLLIYWASTRESGVPDRFSGSGSGTDFTLTISSLQAEDVAVYYCKQSYSRRTFGGGTKVEIKGGGGSGGGGSGGGGSGGGGSQVQLVQSGAEVKKPGASVKVSCKASGFNIKDYYMHWVRQAPGQRLEWMGWIDLENANTIYDAKFQGRVTITRDTSASTAYMELSSLRSEDTAVYYCARDAYGRYFYDVWGQGTLVTVSS
In the case of B2, the Kd with human CD3 [3] is 1.6 nM; in the assay with human CD3 [4], 1.9 nM; with human CD3 [5], 4.4 nM.

B3: CNG-CD3-2 scFv construct (scFv)
scFv: B2 scFv with A232Q
As for B3, the results for the Kd with human CD3 [4] and with human CD3 [5] were 16 nM and 27 nM, respectively.

B4: CNG-CD3-3 scFv construct (scFv)
scFv: B2 scFv with R100L, N187E, A188G
In the case of B4, the results for the dissociation constant (Kd) in the assay with human CD3 [4] and in the assay with human CD3 [5] were 26 nM and 54 nM, respectively.

B5: SEQ ID NO 18 (scFv)
scFv: QVQLQESGPGLVKPSQTLSLTCTVSGGSISTSGMGVGWIRQHPGKGLEWIGHIWWDDDKRYNPALKSRVTISVDTSKNQFSLKLSSVTAADTAVYYCARMELWSYYFDYWGQGTLVTVSSGGGGSGGGGSGGGGSEIVLTQSPATLSLSPGERATLSCSASSSVSYMHWYQQKPGQAPRLLIYDTSKLASGIPARFSGSGSGTDFTLTISSLEPEDFAVYYCFQGSVYPFTFGQGTKLEIKR
notes: its limits are my reading; also called anti-CD19 scFv of tAb0033 to tAb0038
With B5, the figures for the Kd in assay [6] and in assay [7] were 15 nM and 11 nM, respectively.

B6: SEQ ID NO 9 (scFv)
scFv: QVQLVQSGAEVKKPGASVKVSCKASGYTFTDYIMHWVRQAPGQGLEWMGYINPYNDGSKYTEKFQGRVTMTSDTSISTAYMELSRLRSDDTAVYYCARGTYYYGPQLFDYWGQGTTVTVSSGGGGSGGGGSGGGGSDIVMTQTPLSLSVTPGQPASISCKSSQSLETSTGTTYLNWYLQKPGQSPQLLIYRVSKRFSGVPDRFSGSGSGTDFTLKISRVEAEDVGVYYCLQLLEDPYTFGQGTKLEIK
notes: its limits are my reading; also called anti-CD19 scFv of tAb0027 to tAb0032
As to B6, the Kd amounted to 5 nM in assay [6] and 7 nM in assay [7].

B7: CNG-CD19-707 VL-VH scFv (scFv)
scFv: EIVLTQSPATLSLSPGERATLSCSASSSVGYMHWYQQKPGQAPRLLIYDTSKLASGIPARFSGSGSGTDFTLTISSLEPEDFAVYYCFQGSVYPFTFGQGTKLEIKGGGGSGGGGSGGGGSQVQLQESGPGLVKPSQTLSLTCTVSGGSISTSTMGVGWIRQHPGKGLEWIGFIWWDDDKRYNPNLKSRVTMSVDTSKNQFSLKLSSVTAADTAVYYCARMELWSYYFDPWGQGTLVTVSS
In the assay with human CD19 [8], B7 returned a dissociation constant Kd of 0.0122 nM and an off-rate constant (koff) of 2e-05 s⁻¹.

B8: CNG-CD19-710 VL-VH scFv with disulfide bond (scFv)
chain: B7 scFv with V29F, G30S, Q99C, G148V, T154S, G167C, F173H, I174A, N185A, M192I
Take B8: in the assay with human CD19 [9], the Kd was 0.0213 nM and the off-rate (koff) worked out at 2.54e-05 s⁻¹.

B9: CNG-CD19-701 VL-VH scFv with disulfide bond (scFv)
chain: B7 scFv with Q99C, G167C, P230Y
In the assay with human CD19 [9], B9 displayed a Kd of 0.0141 nM and a koff of 2e-05 s⁻¹.

B10: CNG-CD19-707 VL-VH scFv with disulfide bond (scFv)
chain: B7 scFv with Q99C, G167C
In the assay with human CD19 [9], B10 returned a dissociation constant Kd of 0.0117 nM and an off-rate constant (koff) of 2e-05 s⁻¹.

B11: CNG-CD19-710 VL-VH scFv (scFv)
scFv: B7 scFv with V29F, G30S, G148V, T154S, F173H, I174A, N185A, M192I
In the assay with human CD19 [8], B11 had a Kd of 0.0218 nM and a koff of 2e-05 s⁻¹.

B12: CNG-CD19-701 VL-VH scFv (scFv)
scFv: B7 scFv with P230Y
In the assay with human CD19 [8], B12 returned a Kd of 0.0148 nM and an off-rate (koff) of 2e-05 s⁻¹.

B13: CNG-CD19-101 VL-VH scFv (scFv)
scFv: DIVMTQTPLSLSVTPGQPASISCKSSQSLETTTGTTYLNWYLQKPGQSPQLLIYRASKRFSGVPDRFSGSGSGTDFTLKISRVEAEDVGVYYCLQLLEDPYTFGQGTKLEIKGGGGSGGGGSGGGGSQVQLVQSGAEVKKPGASVKVSCKASGYDFTDYIMHWVRQAPGQGLEWMGYINPYNDGSKYTDKFQERVTMTSDTSISTAYMELSRLRSDDTAVYYCARGTYYYGPELFDYWGQGTTVTVSS
notes: scFv without the engineered disulfide
In the assay with human CD19 [8], B13 registered an equilibrium dissociation constant (Kd) of 0.00673 nM and a koff of 2e-05 s⁻¹.

B14: CNG-CD19-103 VL-VH scFv with disulfide bond (scFv)
chain: B13 scFv with T32A, A56V, K58R, T102S, Q105C, D155T, G171C, D189E, E193G, E233Q
Turning to B14, in the assay with human CD19 [9], the Kd is 0.0178 nM and the koff was determined as 4.85e-05 s⁻¹.

B15: CNG-CD19-101 VL-VH scFv with disulfide bond (scFv)
scFv: B13 scFv with Q105C, G171C
notes: Cys at position 44 of VH and 100 of VL already in the entry; also called scFv with Cys substitutions
In the assay with human CD19 [9], B15 yielded a Kd of 0.0139 nM and a dissociation rate constant (koff) of 4.88e-05 s⁻¹.

B16: CNG-CD19-103 VL-VH scFv (scFv)
scFv: B13 scFv with T32A, A56V, K58R, T102S, D155T, D189E, E193G, E233Q
In the assay with human CD19 [8], B16 yielded a dissociation constant Kd of 0.00991 nM and an off-rate (koff) of 2.41e-05 s⁻¹.
